Assay results published in patent publication US20160272694A1.

Legend:
[1] = biological target: EDI200 (human); experiment: bridging ECL in NHP serum; Renzo-1 500 ng/mL with 1 µg/mL free EDI200 as competitor; plate NCO 129.4
[2] = biological target: EDI200 (human); experiment: bridging ECL in NHP serum; Renzo-1 31.25 ng/mL, signal with 1 µg/mL free EDI200 over signal without (Table 17)
[3] = biological target: EDI200 (human); experiment: bridging ECL (biotin-EDI200/SulfoTag-EDI200) in NHP serum; Renzo-1 15.63 ng/mL
[4] = biological target: EDI200 (human); experiment: bridging ECL in NHP serum; Renzo-1 125 ng/mL with 1 µg/mL free EDI200 as competitor
[5] = biological target: EDI200 (human); experiment: bridging ECL in NHP serum; Renzo-1 7.81 ng/mL, signal with 1 µg/mL free EDI200 over signal without (Table 17)
[6] = biological target: EDI200 (human); experiment: bridging ECL in NHP serum; Renzo-1 500 ng/mL, signal with 1 µg/mL free EDI200 over signal without (Table 17)
[7] = biological target: EDI200 (human); experiment: bridging ECL in NHP serum; Renzo-1 62.5 ng/mL, signal with 1 µg/mL free EDI200 over signal without (Table 17)
[8] = biological target: EDI200 (human); experiment: bridging ECL in NHP serum; Renzo-1 125 ng/mL, signal with 1 µg/mL free EDI200 over signal without (Table 17)
[9] = biological target: EDI200 (human); experiment: bridging ECL in NHP serum; Renzo-1 250 ng/mL, signal with 1 µg/mL free EDI200 over signal without (Table 17)
[10] = biological target: EDI200 (human); experiment: bridging ECL (biotin-EDI200/SulfoTag-EDI200) in NHP serum; Renzo-1 62.5 ng/mL
[11] = biological target: EDI200 (human); experiment: bridging ECL (biotin-EDI200/SulfoTag-EDI200) in NHP serum; Renzo-1 7.81 ng/mL
[12] = biological target: EDI200 (human); experiment: bridging ECL in NHP serum; Renzo-1 15.63 ng/mL, signal with 1 µg/mL free EDI200 over signal without (Table 17)
[13] = biological target: EDI200 (human); experiment: bridging ECL (biotin-EDI200/SulfoTag-EDI200) in NHP serum; Renzo-1 250 ng/mL
[14] = biological target: EDI200 (human); experiment: bridging ECL in NHP serum; Renzo-1 250 ng/mL with 1 µg/mL free EDI200 as competitor
[15] = biological target: EDI200 (human); experiment: bridging ECL in NHP serum; Renzo-1 7.81 ng/mL with 1 µg/mL free EDI200 as competitor
[16] = biological target: EDI200 (human); experiment: bridging ECL (biotin-EDI200/SulfoTag-EDI200) in NHP serum; Renzo-1 31.25 ng/mL
[17] = biological target: EDI200 (human); experiment: bridging ECL in NHP serum; Renzo-1 62.5 ng/mL with 1 µg/mL free EDI200 as competitor
[18] = biological target: EDI200 (human); experiment: bridging ECL (biotin-EDI200/SulfoTag-EDI200) in NHP serum; Renzo-1 500 ng/mL; plate NCO 129.4
[19] = biological target: EDI200 (human); experiment: bridging ECL in NHP serum; Renzo-1 31.25 ng/mL with 1 µg/mL free EDI200 as competitor
[20] = biological target: EDI200 (human); experiment: bridging ECL in NHP serum; Renzo-1 15.63 ng/mL with 1 µg/mL free EDI200 as competitor
[21] = biological target: EDI200 (human); experiment: bridging ECL (biotin-EDI200/SulfoTag-EDI200) in NHP serum; plate NCO 129.4
[22] = biological target: EDI200 (human); experiment: bridging ECL (biotin-EDI200/SulfoTag-EDI200) in NHP serum; Renzo-1 125 ng/mL

Mean Signal [1]: 171 signal (ECL) | Drug/Non-drug Ratio [2]: 0.62 | Mean Signal [3]: 102 signal (ECL) | Mean Signal [4]: 85 signal (ECL) | Drug/Non-drug Ratio [5]: 0.91 | Drug/Non-drug Ratio [6]: 0.18 | Drug/Non-drug Ratio [7]: 0.43 | Drug/Non-drug Ratio [8]: 0.28 | Drug/Non-drug Ratio [9]: 0.18 | Mean Signal [10]: 176 signal (ECL) | Mean Signal [11]: 89 signal (ECL) | Drug/Non-drug Ratio [12]: 0.77 | Mean Signal [13]: 495 signal (ECL) | Mean Signal [14]: 89 signal (ECL) | Mean Signal [15]: 81 signal (ECL) | Mean Signal [16]: 129 signal (ECL) | Mean Signal [17]: 75 signal (ECL) | Mean Signal [18]: 949 signal (ECL) | Mean Signal [19]: 80 signal (ECL) | Mean Signal [20]: 78 signal (ECL) | sensitivity (lowest antibody concentration with mean signal above the plate NCO) [21]: 62.5 ng/mL | Mean Signal [22]: 306 signal (ECL)
Substance: Mouse monoclonal (Renzo-1) to EDA (antibody)
